Measured values from the supplement of paper PMC9170038.

System: MS2 coat protein
Experiment: apparent KD of MS2 coat protein; designed switch direction (-1 OFF switch, 1 ON switch): -1; higher = weaker reporter binding
Procedure, shortened: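 Designed RNA switches sharing common flanks were transcribed on Illumina chips by stalled E. coli RNA polymerase. They were titrated with SNAP-549-labelled MS2 coat protein, from 0.7 or 1.5 nM doubling to 3 µM, in Tris-HCl pH 7.5 buffer with KCl, MgCl2, BSA, DTT, tRNA and Tween-20. Titrations ran without input, with 200 uM small-molecule ligand, or with an oligonucleotide input. The apparent KD of each design is the median over its clusters, after curve-fitting of normalised cluster fluorescence.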

[1] = Eterna round: R95, input ligand: FMN 200 uM
[2] = Eterna round: R95, input ligand: microRNA oligo, concentration not stated
[3] = Eterna round: R95, input ligand: none
[4] = input ligand: microRNA oligo, concentration not stated

Sequence	apparent KD of MS2 coat protein [1] [nM]	apparent KD of MS2 coat protein [2] [nM]	apparent KD of MS2 coat protein [3] [nM]	apparent KD of MS2 coat protein (input ligand: FMN 200 uM) [nM]	apparent KD of MS2 coat protein (input ligand: none) [nM]	apparent KD of MS2 coat protein [4] [nM]
AAAUAACAAGCAAGAUCCUACAUGAGGAUCACCCAUGUGCUCGUCUUAAUAAGUACUAUCACGAAAGUGAUAGUACA [Mat - Sensor v3 - turn-off var 1 - Eli Mod - D60] (puzzle: Sensor v3, turn-off variant 1)	383	383	437			
UGCGGGCUUUUGAGACCUCACAUGAGGAUCACCCAUGUGCUUGUCUUGUGAGUGGGUAGGUCGUUGGCUGACUCACG [Sensor-V1 #99] (Eterna round: R97, puzzle: Sensor, turn-off variant 1)				23.4	23.1	
AGUGUGUUAGGAUAUCGCAUAUGCUGGAGGAGGUGGAGUUACGAGAAGGAACAUGAGGAUCACCCAUGUAGGAC [JR_Exclu4_Sub050] (puzzle: Exclusion 4)		25.7				
AGAUGUAGAUACCGGUCCUACAUGAGGAUCACCCAUGUAGCUUGACGUGCGGGCGGCGCUCGUCGGUCUACCAGUAG [salish99_TOv1_r3_100] (puzzle: Sensor v3, turn-off variant 1)	27.3	28.6	36.2			
AUUAACUUAGGAUAUACAUGAGGAUCACCCAUGUCCCACCCGUUACCCAUGACCAUAUGUAGAAGGAAGAAGAA [Exy#9] (Eterna round: R97, puzzle: Exclusion 3)				32.2	39.5	
AAGAGGCGGACAGGAUAUGGGAAAUUGUAAAGACCAGAAGGGUCGGCGAAAAUACAUGAGGAUCACCCAUGUGACUCAUGACCA [AK ExNG1-7.1] (Eterna round: R96, puzzle: Exclusion NG 1)				913	290	311
UCUUACUGAGGAUAUACAUAGAUUUACAUGAGGAUCACCCAUGUUCCUCUAAGUAUAUAUGUAGAAGGCAGAAGAU [Mat - Exclusion 5 - JL Mod - D44] (Eterna round: R97, puzzle: Exclusion 5)				329	235	
UCCUGACAUGAGGAUCACCCAUGUGAGGAUAUGUGGAUCGAGUCAAAUCUCGUUCCGUGCAGAAGGCACAGGGC [EX1 A.21] (Eterna round: R97, puzzle: Exclusion 1)				24.9	19	
AAUGGGUGUGUGAGGAUAUACGAAGGCAAUUGCCAGUAGAAGGUACAUGAGGAUCACCCAUGUGUCCAAAAGAG [Tititemaon] (puzzle: Brourd's mod of Exclusion 4)	12.8	9.11	13.2			
CUUUUGUGAGGAUAUUAGUAGUAAUUAAAUAAAAUUACUACUGAGAAGGCACAUGAGGAUCACCCAUGUUCCUC [salish99_ex4_r3_053] (puzzle: Exclusion 4)		35.9				
GCGACACGAGGAUAUCGGGUCUCUAACAUGAGGAUCACCCAUGUGGCGGCAGGCGUAAGACGAGAAGGCGUAUUCA [Eternabot (L2) Solution 65] (Eterna round: R97, puzzle: Exclusion 5)				26.6	34.3	
UCAUGGUAGCAGGAUAUGCUAGAAAUUUUUUAUGCAGAAGGGCUUACAUGAGGAUCACCCAUGUGUUAGGUUUA [JR_E6_Sub071] (puzzle: Exclusion 6)	22.3	110	221			
CGAUGCUCGUGUCCACAUGAGGAUCACCCAUGUCGAGUUAGCGAGGAUAUCGGUGACACAUAGUACGAGAAGGCGCGAACCUGA [Ex NG3 #26] (Eterna round: R96, puzzle: Exclusion NG 3)				54.3	32.2	21
AGUUGGCGAGGAUAUACAUGAGGAUCACCCAUGUGUGAGAUAUAAGUGAGGUAAAUAUGUAGAAGGCGCUGACA [JR_Ex3_Sub079] (Eterna round: R97, puzzle: Exclusion 3)				18.4	425	
UAAGAUUACCGAGGAUAUGCUGGUUUCUCUCAAGCAGAAGGCGGACUCAACAUGAGGAUCACCCAUGUAAGACGGGUACUAGAU [Ex NG1 #11] (Eterna round: R96, puzzle: Exclusion NG 1)				133	574	76.6
AAGAAACAUGAGGAUCACCCAUGUGAGGAUAUGAAAAAUAAAAUAAAAUAAAUAAUAAUCAGAAGGCACAAAGG [Mat - Mod of Hog D7] (puzzle: Exclusion 1)	37.3	34.1	42			
UUUUUAGUGCUUUUUAAGUACAUGAGGAUCACCCAUGUACUUGUCUGGUGGUCCGGACAAGCUUUUUGCUCGUCUUG [Trying Again] (puzzle: Sensor v3, turn-off variant 1)	41.4	35.9	48.2			
